According to patent US20030203372A1, “Analysis method” (priority 2000, published 2003):

B1: p1F1 (nucleic acid, listed as Homo Sapiens)
DNA: TTTGTGTGGTCTTTTTTTTTTTTTCTCAGTGTTTTCAATTCCTCCTTGGTTGAATCCATGGATGCAAAACCCACAGATATGAAGGGCTGGCTATATATGCATTGATGATTGTCCTATTATATTAGTTATAAAGTGTCATTTAATATGTAGTGAAAGTTATGGTACAGTGGAAAGAGTAGTTGAAAACATAAACATTTGGGCCTTTCAAGAAAGGTAGCTTGGTGAAGTTTTTCACCTTCAAACTATGTCCCAGTCAGGG
B2: p1E11 (nucleic acid, listed as Homo Sapiens)
DNA: TCTCTACAAATNNCTATAACAAAACTTTTTAGGAAAGTACCACAAATATGTTAAACAGAAGAAGCAAATCTCAAATAATGTGCAAAAGCTGTGAGTTTCTTCTTACATAAAACTGGTACCTAAGCAAGTGAGGGTTCATTTTATTTTTCACTCACCAATCCCCATATCATTATACAGTAACACCATACAGCCAAAACGGCCATGATATTCCTCCCTTCTCAGCCAAAATTGGGCAAGAGAGAATGACCCTTGTAGGGGAAAAGAAACCTCTACGATAAACTGAAATGCCACCATCAGGGTTTGTTGAAACTGTAGGNACAGGGTCTACGNCTCACTTAGCTGCTAATGAGTTTCTATGGTTCCAGNTGGGGTAGTTCAAAGTA
modifications: EST array clone; misc_feature 12, 13, 317, 330, 366: n = A,T,C or G
B3: p2A24 (nucleic acid, listed as Homo Sapiens)
DNA: TTTTTTTTTATTTGGATTCTATTTATTTAAAATTAAATTCTTTGCAAAATTGAACTTCTCAACTAAAACGTGTCCATGTCAGAATTTTAACTGTTAGCAGGTAGTTTGTGGCAAAGATGGCTAAATAATGAAGCAAATTAGAATCTGTGTGTATACTAATGAGCTGCTTTTTTTCTGTTGAGACTATCATTATTTGTCTTATTACCCAAGAGGCAATTACCTGAATTTGGATGTCTGAATTATAACTTATGCAGGAATAGTTCTGTAAATACATTTAAATAAACTGTAAAGATATTTAATAAATATAGTATTTATACTAATCTGTGTGCTTCTTTTGGTTTGAATAGTAACTAAATGAGACACCAGCCCTTGACATTGAGTTTGTTGGTCACTATCAGGTCCTCATTTCCAAGCCTCCTAGTCATTCTAGCACTGATTATATGCTGCTACTTTAACTGGCTCCAGCTGCTTCACTACATCAGTTTAGCTTCCTCAGAAATTCATCAAAATGGACGGACAATTAAATGTAAATTATAGAACTTTTTCCCAGCTGAGGCTTTGCACCTTCCGTATAGTATAGAGGGAAGCTACAAAAA

System: primary human cell cultures (11 cell types)
Assay: Custom gene array, 11 human cell types in normoxia or hypoxia for 6 hr and 18 hr;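 for mRNA expression level, #1 HY 18 hr: cell type #1 is adipocyte from subcutaneous adult adipose tissue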;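 for mRNA expression level, #1 HY 6 hr: cell type #1 is adipocyte from subcutaneous adult adipose tissue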;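 for mRNA expression level, #1 NO: cell type #1 is adipocyte from subcutaneous adult adipose tissue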;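 for mRNA expression level, #2 HY 18 hr: cell type #2 is fetal cardiomyocyte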;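 for mRNA expression level, #2 HY 6 hr: cell type #2 is fetal cardiomyocyte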;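 for mRNA expression level, #2 NO: cell type #2 is fetal cardiomyocyte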;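 for mRNA expression level, #3 HY 6 hr: cell type #3 is human umbilical vein endothelial cells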;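 for mRNA expression level, #3 NO: cell type #3 is human umbilical vein endothelial cells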;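 for mRNA expression level, #4 HY 18 hr: cell type #4 is adult dermal fibroblast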;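 for mRNA expression level, #4 HY 6 hr: cell type #4 is adult dermal fibroblast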;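 for mRNA expression level, #4 NO: cell type #4 is adult dermal fibroblast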;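 for mRNA expression level, #6 HY 6 hr: cell type #6 is blood-derived macrophage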;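 for mRNA expression level, #6 NO: cell type #6 is blood-derived macrophage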
Type: cell-based
Conditions: for mRNA expression level, #1 HY 6 hr: cell type #1, hypoxia 6 hr; for mRNA expression level, #1 HY 18 hr: cell type #1, hypoxia 18 hr; for mRNA expression level, #1 NO: cell type #1, normoxia; for mRNA expression level, #2 HY 6 hr: cell type #2, hypoxia 6 hr; for mRNA expression level, #2 HY 18 hr: cell type #2, hypoxia 18 hr; for mRNA expression level, #2 NO: cell type #2, normoxia; for mRNA expression level, #3 HY 6 hr: cell type #3, hypoxia 6 hr; for mRNA expression level, #3 HY 18 hr: cell type #3, hypoxia 18 hr; for mRNA expression level, #3 NO: cell type #3, normoxia; for mRNA expression level, #4 HY 6 hr: cell type #4, hypoxia 6 hr; for mRNA expression level, #4 HY 18 hr: cell type #4, hypoxia 18 hr; for mRNA expression level, #4 NO: cell type #4, normoxia; for mRNA expression level, #5 HY 6 hr: cell type #5, hypoxia 6 hr; for mRNA expression level, #5 NO: cell type #5, normoxia; for mRNA expression level, #6 HY 6 hr: cell type #6, hypoxia 6 hr; for #6 HY 18 hr (mRNA expression level): cell type #6, hypoxia 18 hr; for mRNA expression level, #6 NO: cell type #6, normoxia; for #7 HY 6 hr (mRNA expression level): cell type #7, hypoxia 6 hr; for #7 HY 18 hr (mRNA expression level): cell type #7, hypoxia 18 hr; for #7 NO (mRNA expression level): cell type #7, normoxia; for #8 HY 6 hr (mRNA expression level): cell type #8, hypoxia 6 hr; for #8 HY 18 hr (mRNA expression level): cell type #8, hypoxia 18 hr; for #8 NO (mRNA expression level): cell type #8, normoxia; for #9 HY 6 hr (mRNA expression level): cell type #9, hypoxia 6 hr; for #9 HY 18 hr (mRNA expression level): cell type #9, hypoxia 18 hr; for #9 NO (mRNA expression level): cell type #9, normoxia; for #10 HY 6 hr (mRNA expression level): cell type #10, hypoxia 6 hr; for #10 HY 18 hr (mRNA expression level): cell type #10, hypoxia 18 hr; for #10 NO (mRNA expression level): cell type #10, normoxia; for #11 HY 6 hr (mRNA expression level): cell type #11, hypoxia 6 hr; for #11 HY 18 hr (mRNA expression level): cell type #11, hypoxia 18 hr; for #11 NO (mRNA expression level): cell type #11, normoxia
Method: Equivalent cultures of non-immortalized, non-transformed primary human cells of 10 distinct types, were cultured in either normoxia or were exposed to hypoxia for 6 hr and 18 hr, and gene expression changes were determined. […] Moreover, unlike the vast majority of information in the public domain relating to genes responsive to hypoxia, all of these cells were human and were cultured without any modifications following isolation from the human donors.
A non-primary cell type (#9) was used to represent neurons, since primary human neurons are difficult to source. Therefore a total of 11 cell types are compared. It should be noted that RNA from hepatocytes at the […] timepoint of hypoxia was not available for this work.
Each RNA sample was hybridised to duplicate or triplicate arrays, to ensure reproducible data, and was analysed using GeneSpring software. Data from replicate arrays were merged during analysis to generate mean values. Data normalisation was achieved per-array using the aforementioned list of control genes, such that differences in RNA labelling or hybridization due to experimental variation were corrected by referencing each gene to the mean value of the reference genes on the same array. Also, for each gene, expression values were obtained which represent the value in each experimental condition (e.g. macrophages 6 hr hypoxia) as compared to the median of value of that gene throughout the full range of experimental conditions (i.e. from all cell types). […] This is common in microarray data analysis.

Molecule	mRNA expression level, #1 HY 6 hr	mRNA expression level, #1 HY 18 hr	mRNA expression level, #1 NO	mRNA expression level, #2 HY 6 hr	mRNA expression level, #2 HY 18 hr	mRNA expression level, #2 NO	mRNA expression level, #3 HY 6 hr	mRNA expression level, #3 HY 18 hr	mRNA expression level, #3 NO	mRNA expression level, #4 HY 6 hr	mRNA expression level, #4 HY 18 hr	mRNA expression level, #4 NO	mRNA expression level, #5 HY 6 hr	mRNA expression level, #5 NO	mRNA expression level, #6 HY 6 hr	#6 HY 18 hr (mRNA expression level)	mRNA expression level, #6 NO	#7 HY 6 hr (mRNA expression level)	#7 HY 18 hr (mRNA expression level)	#7 NO (mRNA expression level)	also measured
B1	0.33	0.52	0.58	1.19	1.14	1.42	1.70	1.49	1.64	0.63	0.54	0.95	0.50	0.37	0.61	0.51	0.62	0.90	0.30	0.91	#8 HY 6 hr (mRNA expression level): 0.53; #8 HY 18 hr (mRNA expression level): 0.66; #8 NO (mRNA expression level): 0.34; #9 HY 6 hr (mRNA expression level): 1.23; #9 HY 18 hr (mRNA expression level): 1.06; #9 NO (mRNA expression level): 1.66; #10 HY 6 hr (mRNA expression level): 1.58; #10 HY 18 hr (mRNA expression level): 1.03; #10 NO (mRNA expression level): 1.46; #11 HY 6 hr (mRNA expression level): 1.24; #11 HY 18 hr (mRNA expression level): 1.06; #11 NO (mRNA expression level): 1.25; HIGHEST FOLD CHANGE IN HYPOXIA (hr hypoxia + cell type) (hypoxia/normoxia induction ratio, 18 hr monocyte): 1.96 (18 hr monocyte) fold
B2	1.12	0.87	1.36	2.86	3.03	2.09	0.91	0.88	0.74	0.59	0.79	0.89	2.09	0.77	2.97	2.90	2.76	0.64	0.34	0.63	#8 HY 6 hr (mRNA expression level): 1.47; #8 HY 18 hr (mRNA expression level): 1.35; #8 NO (mRNA expression level): 0.64; #9 HY 6 hr (mRNA expression level): 1.16; #9 HY 18 hr (mRNA expression level): 0.64; #9 NO (mRNA expression level): 1.18; #10 HY 6 hr (mRNA expression level): 0.79; #10 HY 18 hr (mRNA expression level): 0.88; #10 NO (mRNA expression level): 0.74; #11 HY 6 hr (mRNA expression level): 2.49; #11 HY 18 hr (mRNA expression level): 1.93; #11 NO (mRNA expression level): 1.79; HIGHEST FOLD CHANGE IN HYPOXIA (hr hypoxia + cell type) (hypoxia/normoxia induction ratio, 6 hr hepatocyte): 2.73 (6 hr hepatocyte) fold
B3	0.65	0.67	1.21	2.21	2.48	2.42	3.05	2.59	2.35	0.76	0.68	1.10	0.91	0.68	0.22	–	0.28	–	–	–	HIGHEST FOLD CHANGE IN HYPOXIA (hr hypoxia + cell type) (DOWN, 18 hr adipocyte): 1.85 DOWN (18 hr adipocyte) ^ fold
